According to publication PMC8151781, “Ca^2+ Regulates ERp57-Calnexin Complex Formation” (Molecules, 2021):

B1: human ERp57 (residues 25-505) (enzyme, UniProt P30101 25-505, looked up)
chain: SDVLELTDDNFESRISDTGSAGLMLVEFFAPWCGHCKRLAPEYEAAATRLKGIVPLAKVDCTANTNTCNKYGVSGYPTLKIFRDGEEAGAYDGPRTADGIVSHLKKQAGPASVPLRTEEEFKKFISDKDASIVGFFDDSFSEAHSEFLKAASNLRDNYRFAHTNVESLVNEYDDNGEGIILFRPSHLTNKFEDKTVAYTEQKMTSGKIKKFIQENIFGICPHMTEDNKDLIQGKDLLIAYYDVDYEKNAKGSNYWRNRVMMVAKKFLDAGHKLNFAVASRKTFSHELSDFGLESTAGEIPVVAIRTAKGEKFVMQEEFSRDGKALERFLQDYFDGNLKRYLKSEPIPESNDGPVKVVVAENFDEIVNNENKDVLIEFYAPWCGHCKNLEPKYKELGEKLSKDPNIVIAKMDATANDVPSPYEVRGFPTIYFSPANKKLNPKKYEGGRELSDFISYLQREATNPPVIQEEKPKKKKKAQEDL
notes: ERp57 (protein disulfide isomerase family member), human, residues 25-505; Cloned into the NdeI and BamHI sites of pET15b; also called wild-type ERp57
B2: luminal domain of human calnexin (residues 21-481) (domain or fragment, UniProt P27824 21-481, looked up)
chain: HDGHDDDVIDIEDDLDDVIEEVEDSKPDTTAPPSSPKVTYKAPVPTGEVYFADSFDRGTLSGWILSKAKKDDTDDEIAKYDGKWEVEEMKESKLPGDKGLVLMSRAKHHAISAKLNKPFLFDTKPLIVQYEVNFQNGIECGGAYVKLLSKTPELNLDQFHDKTPYTIMFGPDKCGEDYKLHFIFRHKNPKTGIYEEKHAKRPDADLKTYFTDKKTHLYTLILNPDNSFEILVDQSVVNSGNLLNDMTPPVNPSREIEDPEDRKPEDWDERPKIPDPEAVKPDDWDEDAPAKIPDEEATKPEGWLDDEPEYVPDPDAEKPEDWDEDMDGEWEAPQIANPRCESAPGCGVWQRPVIDNPNYKGKWKPPMIDNPSYQGIWKPRKIPNPDFFEDLEPFRMTPFSAIGLELWSMTSDIFFDNFIICADRRIVDDWANDGWGLKKAADGAAEPGVVGQMIEAAEERP
notes: calnexin (CNX), human, luminal domain, residues 21-481; pET15b construct; the N-terminal His tag was removed from the plasmid and a His tag added at the C-terminus; also called CNX; ER-luminal domain of CNX

Tests used:
Conditions in all cases: both partners purified
[1] = biological target: B2; assay: ITC; ERp57 (370 μM) in the syringe titrated into CNX (25 μM) in the cell; 20 mM HEPES pH 7.2, 100 mM NaCl, without Ca2+, 15 °C; one-set-of-sites model
[2] = biological target: B2; assay: ITC; ERp57 (370 μM) in the syringe titrated into CNX (25 μM) in the cell; 20 mM HEPES pH 7.2, 100 mM NaCl, with 1 mM CaCl2, 15 °C; one-set-of-sites model
[3] = biological target: B1; assay: ITC; ERp57 (370 μM) in the syringe titrated into CNX (25 μM) in the cell; 20 mM HEPES pH 7.2, 100 mM NaCl, without Ca2+, 15 °C; one-set-of-sites model
[4] = biological target: B1; assay: ITC; ERp57 (370 μM) in the syringe titrated into CNX (25 μM) in the cell; 20 mM HEPES pH 7.2, 100 mM NaCl, with 1 mM CaCl2, 15 °C; one-set-of-sites model

Binder | dH [1] [kcal/mol] | dH [2] [kcal/mol] | Kd [3] [nM] | Kd [4] [nM]
B1 | -3.31 | -3.81 | – | –
B2 | – | – | 880 | 1520
